The values that follow come from EP4803542A2 (Sanofi Biotechnology, dated 2026).

The experiment has as its target T1, human IL-1R3 expressed on cells (SK-MEL-30 and other human cell lines) (human, UniProt Q9NPH3 21-570).
T1 construct: whole, on cells; also called hIL1R3; IL-1RAcP
T1 sequence (looked up): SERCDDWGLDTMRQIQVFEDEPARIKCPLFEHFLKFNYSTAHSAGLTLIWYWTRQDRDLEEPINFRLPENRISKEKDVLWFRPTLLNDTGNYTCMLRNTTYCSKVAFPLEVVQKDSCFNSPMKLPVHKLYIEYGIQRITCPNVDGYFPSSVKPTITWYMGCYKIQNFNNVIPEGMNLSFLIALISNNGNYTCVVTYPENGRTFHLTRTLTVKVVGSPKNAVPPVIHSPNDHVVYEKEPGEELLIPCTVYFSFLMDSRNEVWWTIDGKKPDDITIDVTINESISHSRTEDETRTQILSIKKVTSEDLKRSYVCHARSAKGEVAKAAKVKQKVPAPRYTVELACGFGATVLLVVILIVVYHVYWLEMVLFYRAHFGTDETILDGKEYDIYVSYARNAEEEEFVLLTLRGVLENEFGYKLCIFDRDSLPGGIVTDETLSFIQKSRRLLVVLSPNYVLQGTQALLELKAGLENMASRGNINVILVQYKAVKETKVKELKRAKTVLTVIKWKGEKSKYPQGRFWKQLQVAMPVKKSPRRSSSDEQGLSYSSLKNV
Description: flow cytometry on the high-IL-1R3-expressing cell line SK-MEL-30. On the technique in general: In flow cytometry, cells or beads pass a laser one at a time.

B1: MAB-16-0030, humanized anti-IL-1R3 IgG1-LALA antibody (antibody, V domains shown)
VH: EVQLEESGGRLVQPGTSLRLSCAVSGFSLSSYDMSWVRQAPGKGLEWVSTIYIGGTTAYASWPKGRFTISKTNSKNTLYLQMNSLRAEDTAVYFCARLQGANYYNSLALWGQGTLVTVSS
VL: DVQMTQSPSSLSASVGDRVTITCQASQSIYSFLSWYQQKPGQAPKLLIYAASDLESGVPSRFSGSGSGTDFTLTISSLQPEDFATYYCQCNYIIDYGAFGQGTKVVIKR
notes: Humanized IgG1 with L234A and L235A (IgG1-LALA); also called anti-hIL-1R3 antibody MAB-16-0030; IgG1-LALA version of MAB-16-0030
By EC50 is commonly meant the concentration needed to bring the measured effect to its halfway point. Low values mean higher potency in that assay, high ones lower potency in that assay. As to B1, the EC50 worked out at 0.307 µg/mL.
